The values that follow come from article PMC4216633 (Journal of nuclear medicine : official publication, Society …, 2014).

The test system of data set [1] is thrombus. The data set can be described thus: Ex vivo biodistribution in rat model of arterial thrombosis. Conditions: rat carotid crush thrombosis.
For data set [2] the following is noted: rat, in vivo, iv.
For data set [3] the following is noted: rat, in vivo.

On to “FHCHypY(3-Cl)DLCHIL-PXD (disulfide) [FBP8]”, for which, in data set [1], the “uptake at the target site (thrombus), persisted over 5h” value is reported as 0.5–0.8 % ID/g. Also, the “elimination half-life of the intact probe in blood” value in data set [2] amounted to 13.8 ± 3.8 min. Also, the “intact probe in blood at 4h post-injection” value in data set [3] was more than 85%.

As to “FHCHypY(3-Cl)DLCHIL-PXD (disulfide) [FBP9]”, the “uptake at the target site (thrombus), persisted over 5h” value in data set [1] is on record as 0.5–0.8 % ID/g. Besides, the “elimination half-life of the intact probe in blood” value in data set [2] was found to be 17.9 ± 5.8 min. The “intact probe in blood at 4h post-injection” value in data set [3] was more than 85%.
